Reference: patent US20250197501A1 (DEVELOPMENT CENTER FOR BIOTECHNOLOGY, published 2025)
Substitutions are numbered along the chain they refer to. Read-outs that look alike come from different tables or passages of the source.

Tests used:
[1] = biological target: T1, human B7-H3 on the surface of human cancer cells (human, UniProt Q5ZPR3 29-534); assay: cell-based or functional assay
T1 sequence: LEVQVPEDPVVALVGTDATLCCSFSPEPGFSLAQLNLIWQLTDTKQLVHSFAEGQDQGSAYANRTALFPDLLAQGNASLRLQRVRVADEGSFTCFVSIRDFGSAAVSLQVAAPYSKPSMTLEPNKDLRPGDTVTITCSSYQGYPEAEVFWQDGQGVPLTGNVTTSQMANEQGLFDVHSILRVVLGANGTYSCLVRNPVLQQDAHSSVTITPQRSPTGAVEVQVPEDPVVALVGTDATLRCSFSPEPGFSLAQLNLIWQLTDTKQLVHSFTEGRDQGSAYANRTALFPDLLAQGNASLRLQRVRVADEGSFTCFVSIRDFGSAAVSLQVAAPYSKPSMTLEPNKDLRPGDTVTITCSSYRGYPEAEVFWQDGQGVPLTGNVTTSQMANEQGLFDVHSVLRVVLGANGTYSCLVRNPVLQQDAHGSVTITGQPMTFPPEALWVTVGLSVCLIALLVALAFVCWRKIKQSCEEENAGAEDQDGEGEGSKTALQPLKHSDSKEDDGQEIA

[2] = biological target: T2, recombinant human B7-H3-mFc protein (human, UniProt Q5ZPR3 29-466); assay: SPR; MMAE conjugate, not parental mAb
T2 construct: also called B7-H3 protein; not shown: mouse Fc domain
T2 sequence: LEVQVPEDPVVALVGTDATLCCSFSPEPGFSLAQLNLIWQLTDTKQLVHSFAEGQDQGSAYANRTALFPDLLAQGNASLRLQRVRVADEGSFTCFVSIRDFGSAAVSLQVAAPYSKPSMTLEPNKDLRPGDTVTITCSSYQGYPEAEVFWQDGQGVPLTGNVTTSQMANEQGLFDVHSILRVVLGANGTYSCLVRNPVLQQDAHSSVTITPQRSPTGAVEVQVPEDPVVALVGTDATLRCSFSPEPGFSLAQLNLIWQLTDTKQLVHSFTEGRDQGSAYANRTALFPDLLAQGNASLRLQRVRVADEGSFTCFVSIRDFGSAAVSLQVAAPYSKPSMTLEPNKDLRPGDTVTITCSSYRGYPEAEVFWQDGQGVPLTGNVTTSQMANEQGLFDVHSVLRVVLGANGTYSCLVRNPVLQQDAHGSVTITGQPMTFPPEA
Method: The binding kinetics of the present antibodies against human B7-H3 were determined by Biacore™ assay. Carboxymethylated dextran biosensor chips (CM5) were activated according to the supplier's instructions. Anti-human IgG (Fc) was diluted with immobilization buffer before injection at a flow rate of 10 μL/minute to achieve approximately 10,000 response units (RU) of coupled protein followed by the injection of 1 M ethanolamine to block unreacted groups. Human anti-B7-H3 antibodies were captured on anti-human IgG chip. For kinetics measurements, two-fold serial dilutions of human B7-H3-mFc protein (from 40 nM to 0.3125 nM) were injected in HBS-EP⁺ Biacore™ running buffer provided by the manufacturer at a flow rate of 30 μL/min.

[3] = biological target: T1, human B7-H3 on the surface of human …; assay: cell-based or functional assay; remark: listed apart in the source
[4] = biological target: T2, recombinant human B7-H3-mFc protein; assay: ELISA, plate coated with human B7-H3-mFc
Method: (§1) The binding affinity of full-length antibodies to human, monkey, mouse and rat B7-H3 were evaluated by ELISA. In brief, 96-well plate was coated with B7-H3 proteins (i.e., human B7-H3-mFc protein, cynomolgus monkey B7-H3 protein or rat B7-H3 Fc chimeric protein) in coating buffer and incubated overnight at 4° C. After washing with PBS for 3 times, the 96-well plate was inverted and tapped on clean absorbent papers to remove excess liquid. The blocking buffer (PBS containing 1% bovine serum albumin (BSA) was added to the wells, followed by incubating the plate at 37° C. for 1 hour with gentle continual shaking. After washing with PBS for 3 times, serial dilutions of anti-B7-H3 antibody (in PBS containing 1% BSA) were added into the wells. The plate was incubated at 37° C. for 1 hour with gentle continual shaking. After washing with PBS for 3 times, the secondary antibody (peroxidase-conjugated AffiniPure™ F(ab′)₂ fragment goat anti-human IgG (H+L)) was added into the wells and then incubated at 37° C. for 1 hour with gentle continual shaking. The plate was washed with PBS for 3 times, and the TMB substrate was added into each well and incubated at room temperature for 5 minutes, avoiding from light. 1 N HCl stop solution was added into each well and the absorbance was measured at 450/650 nm. The binding affinity value (EC50) of antibodies was determined by software.

[5] = biological target: T3, recombinant mouse B7-H3-mFc protein (mouse, UniProt Q8VE98 29-244); assay: ELISA, plate coated with mouse B7-H3 mFc
T3 construct: not shown: mouse Fc domain
T3 sequence: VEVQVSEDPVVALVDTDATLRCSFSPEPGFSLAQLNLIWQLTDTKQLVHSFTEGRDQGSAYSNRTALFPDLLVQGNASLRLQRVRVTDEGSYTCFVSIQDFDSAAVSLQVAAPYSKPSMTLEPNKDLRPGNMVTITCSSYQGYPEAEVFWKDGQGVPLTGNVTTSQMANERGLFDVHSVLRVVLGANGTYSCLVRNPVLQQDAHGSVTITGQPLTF
Method: as §1

[6] = biological target: T4, recombinant rat B7-H3-mFc protein (rat, UniProt Q7TPB4 29-244); assay: ELISA, plate coated with rat B7-H3 mFc
T4 construct: also called rat B7-H3 mFc chimeric protein; rat B7-H3 Fc chimeric protein; not shown: mouse Fc domain
T4 sequence: T3 sequence with A33R, S62A, N131D, V156L, L214M
Method: as §1

[7] = biological target: T5, B7-H7; assay: ELISA on the named B7 family protein (Example 1.1), A450 readout; antibody concentration not given
T5 chain: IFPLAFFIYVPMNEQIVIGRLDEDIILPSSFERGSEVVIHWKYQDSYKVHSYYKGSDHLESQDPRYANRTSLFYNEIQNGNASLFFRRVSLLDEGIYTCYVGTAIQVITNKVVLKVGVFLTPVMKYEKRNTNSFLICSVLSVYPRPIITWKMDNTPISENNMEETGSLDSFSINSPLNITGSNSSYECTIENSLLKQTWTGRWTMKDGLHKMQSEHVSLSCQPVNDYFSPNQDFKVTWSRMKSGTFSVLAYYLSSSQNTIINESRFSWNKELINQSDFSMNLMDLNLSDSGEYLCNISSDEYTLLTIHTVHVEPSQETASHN

[8] = biological target: T6, B7-H6; assay: as above
T6 chain: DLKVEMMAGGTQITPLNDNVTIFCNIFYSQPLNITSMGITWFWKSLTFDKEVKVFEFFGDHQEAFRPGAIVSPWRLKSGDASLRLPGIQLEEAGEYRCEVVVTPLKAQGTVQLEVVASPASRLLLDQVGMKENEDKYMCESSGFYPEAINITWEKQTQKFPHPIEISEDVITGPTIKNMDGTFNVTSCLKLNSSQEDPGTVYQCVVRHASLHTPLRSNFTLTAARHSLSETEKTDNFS

[9] = biological target: B7-H1; assay: as above
[10] = biological target: T7, B7-H4; assay: as above
T7 construct: Member of the group m9
T7 chain: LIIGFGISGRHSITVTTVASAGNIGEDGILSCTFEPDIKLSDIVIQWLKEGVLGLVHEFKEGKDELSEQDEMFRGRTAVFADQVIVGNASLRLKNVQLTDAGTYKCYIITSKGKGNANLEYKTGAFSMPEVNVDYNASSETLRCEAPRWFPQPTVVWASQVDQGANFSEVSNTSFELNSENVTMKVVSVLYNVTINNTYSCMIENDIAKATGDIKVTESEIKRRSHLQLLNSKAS

[11] = biological target: T8, B7-H2; assay: as above
T8 chain: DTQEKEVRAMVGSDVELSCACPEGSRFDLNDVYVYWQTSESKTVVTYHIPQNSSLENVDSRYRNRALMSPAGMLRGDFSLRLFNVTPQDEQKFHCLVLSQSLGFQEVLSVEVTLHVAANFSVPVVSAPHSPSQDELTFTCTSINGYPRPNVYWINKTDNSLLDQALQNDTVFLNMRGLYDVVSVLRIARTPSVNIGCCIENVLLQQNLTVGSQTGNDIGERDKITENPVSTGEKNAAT

[12] = biological target: T3, recombinant mouse B7-H3-mFc protein; assay: SPR (Biacore), antibody captured on anti-human IgG chip, B7-H3 protein injected
[13] = biological target: T2, recombinant human B7-H3-mFc protein; assay: as above
[14] = biological target: T4, recombinant rat B7-H3-mFc protein; assay: as above
[15] = biological target: T9, recombinant cynomolgus monkey B7-H3 protein (cynomolgus monkey, UniProt Q7TPB4 26-248 (rat entry)); assay: ELISA, plate coated with cynomolgus monkey B7-H3
T9 chain: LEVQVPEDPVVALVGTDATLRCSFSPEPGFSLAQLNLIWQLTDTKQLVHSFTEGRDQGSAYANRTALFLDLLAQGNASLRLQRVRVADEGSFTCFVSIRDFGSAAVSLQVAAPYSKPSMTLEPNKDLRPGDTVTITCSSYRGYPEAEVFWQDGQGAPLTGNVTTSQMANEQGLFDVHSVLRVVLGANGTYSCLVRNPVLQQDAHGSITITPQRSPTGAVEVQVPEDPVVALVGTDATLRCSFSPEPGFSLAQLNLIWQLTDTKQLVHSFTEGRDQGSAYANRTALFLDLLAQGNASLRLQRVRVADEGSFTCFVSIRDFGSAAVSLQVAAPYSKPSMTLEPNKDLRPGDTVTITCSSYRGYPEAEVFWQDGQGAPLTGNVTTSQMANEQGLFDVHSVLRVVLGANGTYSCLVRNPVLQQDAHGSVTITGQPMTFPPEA

B1: 91H06-MMAE (other)
VH: EVQLVESGGGLVQPGGSLRLSCAASGFTFSDYGMGWVRQAPGKGLEWVSSISWDSSSKEYADSVKGRFTISRDNSKNTLYLQMNSLRAEDTAVYYCARAWIAIIGGGAHFDYWGQGTLVTVSS
VL: DIQMTQSPSSLSASVGDRVTITCRASQSVSSHLAWYQQKPGKAPKLLIYLTSSLQSGVPSRFSGSGSGTDFTLTISSLQPEDFATYYCMQSKSLPFTFGQGTKVEIKR
modifications: MMAE linked through a PEG linker and a protease-sensitive valine-citrulline or glutamate-valine-citrulline linker to the azide-modified antibody (mAb-4 Azide, tri-mannosyl ADC platform); DAR between 3.5 and 3.9; attachment residue not stated
notes: also called the present ADC
- Cytotoxicity activity (IC50, nM), CAL 27 cells [1]: < 50 nM
- Cytotoxicity activity (IC50, nM), Detroit 562 cells [1]: < 50 nM
- Cytotoxicity activity (IC50, nM), FaDu cells [1]: < 50 nM
- Cytotoxicity activity (IC50, nM), LNCaP cells [1]: < 50 nM
- Kd [2]: 0.24 nM
- koff [2]: 0.000155 s⁻¹
- kon [2]: 643000 M⁻¹ s⁻¹

B2: 91H06-MMAF (other)
VH: B1 VH
VL: B1 VL
modifications: MMAF linked through a PEG linker and a protease-sensitive valine-citrulline or glutamate-valine-citrulline linker to the azide-modified antibody (mAb-4 Azide, tri-mannosyl ADC platform); DAR between 3.5 and 3.9; attachment residue not stated
- Cytotoxicity activity (IC50, nM), CAL 27 cells [3]: < 10 nM
- Cytotoxicity activity (IC50, nM), Detroit 562 cells [3]: < 10 nM
- Cytotoxicity activity (IC50, nM), FaDu cells [3]: < 10 nM
- Cytotoxicity activity (IC50, nM), LNCaP cells [3]: < 10 nM

B3: mAb 91H06 (antibody, V domains shown)
VH: B1 VH
VL: B1 VL
notes: Fully human, detected with anti-human IgG; also called antibody 91H06; anti-B7-H3 monoclonal antibody 91H06
- EC50 [4]: 0.0186 nM
- EC50 [5]: 0.0767 nM
- EC50 [6]: 0.0601 nM
- binding result [7]: no binding
- binding result [8]: no binding
- binding result [9]: no binding
- binding result [10]: no binding
- binding result [11]: no binding
- Kd [12]: 2.03 nM
- Kd [13]: 0.227 nM
- kon [14]: 178000 M⁻¹ s⁻¹

B4: Ifinatamab (antibody, V domains shown)
VH: QVQLVQSGAEVKKPGSSVKVSCKASGYTFTNYVMHWVRQAPGQGLEWMGYINPYNDDVKYNEKFKGRVTITADESTSTAYMELSSLRSEDTAVYYCARWGYYGSPLYYFDYWGQGTLVTVSS
VL: EIVLTQSPATLSLSPGERATLSCRASSRLIYMHWYQQKPGQAPRPLIYATSNLASGIPARFSGSGSGTDFTLTISSLEPEDFAVYYCQQWNSNPPTFGQGTKVEIK
- EC50 [4]: 0.0356 nM
- EC50 [15]: 0.127 nM
